Reference: US20250304687A1 (LTZ THERAPEUTICS, published 2025)
One block for each binder: values may come before it.

Target: T1, human CD79b recombinant protein (human, UniProt P40259 29-159, limits assumed)
T1 construct: Coated on ELISA plates at 1 ug/ml
T1 sequence (looked up): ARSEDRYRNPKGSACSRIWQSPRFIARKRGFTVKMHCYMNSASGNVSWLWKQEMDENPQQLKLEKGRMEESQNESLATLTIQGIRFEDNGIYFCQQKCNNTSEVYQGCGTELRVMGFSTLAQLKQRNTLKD
Test: ELISA, coated human CD79b recombinant protein
Experimental: The binding affinities of CD79b/CD3 bispecific antibodies to human CD79b recombinant protein were tested by ELISA. 1 μg/ml (in PBS buffer) of human CD79b recombinant protein was coated on ELISA plates overnight. ELISA plates were washed and blocked with blocking buffer (PBS+1% BSA) and then incubated with serial dilutions of primary CD79b/CD3 bispecific antibodies.

binding result: binds
B1: Pola/msnCD3 (bispecific antibody, human IgG1, kappa, N297G)
light: DIQLTQSPSSLSASVGDRVTITCKASQSVDYEGDSFLNWYQQKPGKAPKLLIYAASNLESGVPSRFSGSGSGTDFTLTISSLQPEDFATYYCQQSNEDPLTFGQGTKVEIKRTVAAPSVFIFPPSDEQLKSGTASVVCLLNNFYPREAKVQWKVDNALQSGNSQESVTEQDSKDSTYSLSSTLTLSKADYEKHKVYACEVTHQGLSSPVTKSFNRGEC
heavy: EVQLVESGGGLVQPGGSLRLSCAASGYTFSSYWIEWVRQAPGKGLEWIGEILPGGGDTNYNEIFKGRATFSADTSKNTAYLQMNSLRAEDTAVYYCTRRVPIRLDYWGQGTLVTVSSASTKGPSVFPLAPSSKSTSGGTAALGCLVKDYFPEPVTVSWSSGALTSGVHTFPAVLQSSGLYSLSSVVTVPSSSLGTQTYICNVNHKPSNTKVDKKVEPKSCDKTHTCPPCPAPELLGGPSVFLFPPKPKDTLMISRTPEVTCVVVDVSHEDPEVKFNWYVDGVEVHNAKTKPREEQYGSTYRVVSVLTVLHQDWLNGKEYKCKVSNKALPAPIEKTISKAKGQPREPQVYTLPPSRDELTKNQVSLSCAVKGFYPSDIAVEWESNGQPENNYKTTPPVLDSDGSFFLVSKLTVDKSRWQQGNVFSCSVMHEALHNRFTQKSLSLSPGK
chain: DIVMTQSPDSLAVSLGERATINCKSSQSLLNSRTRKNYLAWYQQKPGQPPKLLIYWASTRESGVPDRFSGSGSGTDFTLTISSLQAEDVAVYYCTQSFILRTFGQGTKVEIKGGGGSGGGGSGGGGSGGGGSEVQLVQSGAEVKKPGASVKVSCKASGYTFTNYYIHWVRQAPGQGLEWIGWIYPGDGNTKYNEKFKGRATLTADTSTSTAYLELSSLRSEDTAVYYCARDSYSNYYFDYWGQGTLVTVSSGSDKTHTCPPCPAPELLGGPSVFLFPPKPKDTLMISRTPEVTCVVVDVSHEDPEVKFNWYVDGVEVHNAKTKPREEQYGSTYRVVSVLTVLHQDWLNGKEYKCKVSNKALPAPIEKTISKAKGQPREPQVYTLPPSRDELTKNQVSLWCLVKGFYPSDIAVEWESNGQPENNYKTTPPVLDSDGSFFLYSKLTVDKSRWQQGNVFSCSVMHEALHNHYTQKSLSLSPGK
notes: also called CD79b/CD3 bispecific antibody Pola/msnCD3

binding result: binds
B2: 23D8/TRX4 (bispecific antibody, human IgG1, kappa, N297G)
light: AYDMTQTPASVEVAVGGTVTIKCQASQSISDNLSWYQQKPGQPPKLLIYDASDLASGVPSRFSGSGSGTEFTLTISDLEPADAATYYCQQDWISSNVDNTFGGGTEVVVKRTVAAPSVFIFPPSDEQLKSGTASVVCLLNNFYPREAKVQWKVDNALQSGNSQESVTEQDSKDSTYSLSSTLTLSKADYEKHKVYACEVTHQGLSSPVTKSFNRGEC
heavy: QSLEESGGGLVTPGGTLTLTCTVSGLSLSSNAINWVRQAPGKGLEWIGMIYSGGRIEYASWAKGRFTISKTSTTVDLKITSPTTEDTATYFCAKGMSPSAHSSDIWGPGTLVTVSASTKGPSVFPLAPSSKSTSGGTAALGCLVKDYFPEPVTVSWSSGALTSGVHTFPAVLQSSGLYSLSSVVTVPSSSLGTQTYICNVNHKPSNTKVDKKVEPKSCDKTHTCPPCPAPELLGGPSVFLFPPKPKDTLMISRTPEVTCVVVDVSHEDPEVKFNWYVDGVEVHNAKTKPREEQYGSTYRVVSVLTVLHQDWLNGKEYKCKVSNKALPAPIEKTISKAKGQPREPQVYTLPPSRDELTKNQVSLSCAVKGFYPSDIAVEWESNGQPENNYKTTPPVLDSDGSFFLVSKLTVDKSRWQQGNVFSCSVMHEALHNRFTQKSLSLSPGK
chain: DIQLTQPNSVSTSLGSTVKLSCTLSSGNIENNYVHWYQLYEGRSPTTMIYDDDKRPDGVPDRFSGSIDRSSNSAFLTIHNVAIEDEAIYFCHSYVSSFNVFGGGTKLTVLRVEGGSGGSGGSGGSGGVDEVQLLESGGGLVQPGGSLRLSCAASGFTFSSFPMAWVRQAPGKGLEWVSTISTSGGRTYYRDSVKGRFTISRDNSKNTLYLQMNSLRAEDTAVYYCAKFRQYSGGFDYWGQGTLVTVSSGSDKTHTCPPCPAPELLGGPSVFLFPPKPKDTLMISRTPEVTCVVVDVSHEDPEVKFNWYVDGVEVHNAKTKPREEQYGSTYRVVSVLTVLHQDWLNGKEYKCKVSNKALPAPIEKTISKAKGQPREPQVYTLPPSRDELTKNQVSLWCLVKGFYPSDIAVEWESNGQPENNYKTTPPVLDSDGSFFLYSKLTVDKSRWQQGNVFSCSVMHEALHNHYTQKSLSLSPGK
notes: Knob-into-hole format: anti-CD79b Fab arm (rabbit 23D8 variable regions on human IgG1/kappa) and anti-CD3 TRX4 (otelixizumab) scFv-Fc

binding result: binds
B3: 23D8/msnCD3 (bispecific antibody, human IgG1, kappa, N297G)
light: B2 light
heavy: B2 heavy
chain: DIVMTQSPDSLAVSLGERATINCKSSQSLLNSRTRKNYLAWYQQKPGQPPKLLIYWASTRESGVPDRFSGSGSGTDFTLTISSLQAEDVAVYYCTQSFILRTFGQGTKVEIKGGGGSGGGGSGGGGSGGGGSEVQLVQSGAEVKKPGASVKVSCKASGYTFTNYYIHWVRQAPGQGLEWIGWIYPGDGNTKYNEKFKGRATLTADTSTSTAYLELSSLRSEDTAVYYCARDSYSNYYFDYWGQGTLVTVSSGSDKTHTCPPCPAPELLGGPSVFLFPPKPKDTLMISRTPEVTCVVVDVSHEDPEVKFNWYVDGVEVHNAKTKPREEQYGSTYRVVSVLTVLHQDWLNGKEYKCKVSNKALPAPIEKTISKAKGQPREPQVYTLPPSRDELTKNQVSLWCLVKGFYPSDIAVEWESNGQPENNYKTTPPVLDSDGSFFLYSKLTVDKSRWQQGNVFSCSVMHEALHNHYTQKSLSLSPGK
notes: also called CD79b/CD3 bispecific antibody 23D8/msnCD3

binding result: binds
B4: 23D8/38E4 (bispecific antibody, human IgG1, kappa, N297G)
light: B2 light
heavy: B2 heavy
chain: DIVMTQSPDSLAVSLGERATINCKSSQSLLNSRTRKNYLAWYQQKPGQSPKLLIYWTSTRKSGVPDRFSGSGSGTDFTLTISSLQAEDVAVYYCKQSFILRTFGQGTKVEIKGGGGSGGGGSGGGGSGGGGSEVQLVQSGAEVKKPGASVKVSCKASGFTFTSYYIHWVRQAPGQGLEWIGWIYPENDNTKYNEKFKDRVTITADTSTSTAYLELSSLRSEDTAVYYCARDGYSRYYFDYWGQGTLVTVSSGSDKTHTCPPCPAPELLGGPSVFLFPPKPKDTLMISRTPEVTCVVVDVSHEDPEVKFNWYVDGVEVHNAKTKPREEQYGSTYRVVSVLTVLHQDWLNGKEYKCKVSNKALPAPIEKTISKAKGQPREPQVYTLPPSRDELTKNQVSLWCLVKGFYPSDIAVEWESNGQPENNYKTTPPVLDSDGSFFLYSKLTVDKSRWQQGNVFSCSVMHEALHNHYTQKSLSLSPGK
notes: Knob-into-hole format: anti-CD79b 23D8 Fab arm and anti-CD3 38E4 scFv-Fc; also called CD79b/CD3 bispecific antibody 23D8/38E4
